Test results as given in the supplement of paper PMC7125110.
± gives the standard error. Fewer inactive variants are shown than the library holds.

B1: glmS ribozyme (parent)
chain: AUAAAAGCGCCAGAACUACAGAAAUGUAGUUGACGAGGAGGAGGUUUAUCGAAUUUUCGGCGGAUGCCUCCAAA

How the values were obtained:
Settings in all cases: with glucosamine-6-phosphate
glucosamine-6-phosphate [1] = variants of: B1; assay: self-cleavage kobs at 40 uM GlcN6P; higher = faster cleavage; RNA array
Summary of the method: (§1)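 A hybridised Cy3 probe tracked barcoded ribozyme variants, transcribed in situ by E. coli RNA polymerase on sequenced MiSeq chips, at 37 °C. The variants received 40 μM to 10 mM glucosamine-6-phosphate in HEPES/KCl/Mg(OAc)2 buffer. kobs came from decay fits and kcat and KM from weighted Michaelis–Menten fits.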

glucosamine-6-phosphate [2] = variants of: B1; assay: self-cleavage kobs at 10000 uM GlcN6P; higher = faster cleavage; RNA array
Summary of the method: as §1

glucosamine-6-phosphate [3] = variants of: B1; assay: self-cleavage kobs at 640 uM GlcN6P; higher = faster cleavage; RNA array
Summary of the method: as §1

glucosamine-6-phosphate [4] = variants of: B1; assay: self-cleavage kobs at 160 uM GlcN6P; higher = faster cleavage; RNA array
Summary of the method: as §1

glucosamine-6-phosphate [5] = variants of: B1; assay: self-cleavage kobs at 2500 uM GlcN6P; higher = faster cleavage; RNA array
Summary of the method: as §1

Variant	self-cleavage kobs at 40 uM GlcN6P (glucosamine-6-phosphate [1]) [s⁻¹]	self-cleavage kobs at 10000 uM GlcN6P (glucosamine-6-phosphate [2]) [s⁻¹]	self-cleavage kobs at 640 uM GlcN6P (glucosamine-6-phosphate [3]) [s⁻¹]	self-cleavage kobs at 160 uM GlcN6P (glucosamine-6-phosphate [4]) [s⁻¹]	self-cleavage kobs at 2500 uM GlcN6P (glucosamine-6-phosphate [5]) [s⁻¹]
G29A U55C C61G	< 1e-05				
C16G G62U C67G	< 1e-05				
G29C C58U C71U	< 1e-05	5.59e-05 ± 1.7e-05			
G29A U31C G35U G66A	< 1e-05				
C16A C50G C68U	0.000143 ± 3.6e-05	0.000227 ± 6.2e-05			
U30A G43C	< 1e-05	< 1e-05	< 1e-05		
U30A U54A G59U G62U C67U C70U	< 1e-05	< 1e-05			
C16G G51A	< 1e-05	< 1e-05		< 1e-05	
A15U G29C A39G	6.29e-05 ± 1.7e-05	0.00376 ± 0.0005			
G29C G37U G63U	< 1e-05				
G29U U30A U31G A53U	< 1e-05		7.01e-05 ± 2.6e-05		
A15U A39C G41C	< 1e-05		< 1e-05		< 1e-05
C16U U30G	4.04e-05 ± 1.4e-05	0.00235 ± 0.00062	0.000244 ± 6.5e-05	6.14e-05 ± 1.5e-05	0.000944 ± 0.00032
C16U G63U G66A	< 1e-05	< 1e-05			
C16A G26A C68G	3.64e-05 ± 1.7e-05	3.65e-05 ± 1.5e-05			
C16U C34G U57A G62U	< 1e-05	< 1e-05			
U30A C58A G60C U69G	< 1e-05	< 1e-05			
A15U C71U	0.000165 ± 1.3e-05	0.00793 ± 0.0013	0.00103 ± 9e-05	0.00037 ± 4.8e-05	0.00528 ± 0.00075
G29A C61U G63A	< 1e-05				
C16A G43C A48G C67U	< 1e-05	< 1e-05			
A15U G62A	< 1e-05	< 1e-05		< 1e-05	< 1e-05
A15U G62C	< 1e-05	< 1e-05	< 1e-05		
A15U G62U	< 1e-05	< 1e-05	< 1e-05		< 1e-05
U30C A48U	< 1e-05	< 1e-05	< 1e-05	< 1e-05	
G29U A33U G38C G40A	< 1e-05				

Variant	self-cleavage kobs at 40 uM GlcN6P (glucosamine-6-phosphate [1]) [s⁻¹]	self-cleavage kobs at 10000 uM GlcN6P (glucosamine-6-phosphate [2]) [s⁻¹]	self-cleavage kobs at 640 uM GlcN6P (glucosamine-6-phosphate [3]) [s⁻¹]	self-cleavage kobs at 160 uM GlcN6P (glucosamine-6-phosphate [4]) [s⁻¹]	self-cleavage kobs at 2500 uM GlcN6P (glucosamine-6-phosphate [5]) [s⁻¹]
G29A U55C	0.000113 ± 2.5e-05	0.00384 ± 0.00092	0.00146 ± 0.00032	9.66e-05 ± 2.7e-05	0.00194 ± 0.00056
C16A G29U	0.000701 ± 7.4e-05	0.0387 ± 0.0071	0.00517 ± 0.00081	0.00212 ± 0.00064	0.0144 ± 0.0033
G29A A36U	< 1e-05		< 1e-05		< 1e-05
A15G U45A	0.00128 ± 0.00026	0.098 ± 0.043	0.025 ± 0.0066	0.00318 ± 0.0012	0.046 ± 0.019
G29A G32U C34G C50A C61U	< 1e-05	< 1e-05			
C16U G60C C67A	< 1e-05				
U30A U49C U55A	< 1e-05				
C16G G29C	0.000686 ± 9.2e-05	0.0294 ± 0.0058	0.00972 ± 0.0043	0.00103 ± 0.00047	0.00501 ± 0.0018
A15U G29C A48G C71A	< 1e-05				
C16U A42U U45C G59A C68U	< 1e-05	< 1e-05			
G29U U55G	4.62e-05 ± 1.1e-05	0.00239 ± 0.0003	0.000282 ± 5.3e-05		0.00177 ± 0.00029
C16A A33U G38C	< 1e-05				< 1e-05
G29U U45A C61A	< 1e-05				
U30C G35A	< 1e-05	< 1e-05	< 1e-05	< 1e-05	< 1e-05
U30A A42G	0.000294 ± 7.3e-05	0.0172 ± 0.0059	0.0017 ± 0.00047		
C16G C34G G60U C61G U65A C67G	8.29e-05 ± 1.8e-05				0.000198 ± 6.9e-05
C16U G32U A48C G59C	< 1e-05	< 1e-05			
A15U A52U G66C	< 1e-05			< 1e-05	
G29U G37C A39G U56A C61G	< 1e-05				
G29C U56A	4.47e-05 ± 1.2e-05	0.00136 ± 0.00016	0.000209 ± 3.6e-05	2.63e-05 ± 1.3e-05	0.000439 ± 8.7e-05
G29U G40C A52G	< 1e-05				
G29A G37C U69C	< 1e-05	< 1e-05			
C16G A33U	< 1e-05	3.36e-05 ± 1e-05			
C16U U30A C58G A73U	< 1e-05				
G29U G35A A48G A53C	< 1e-05		< 1e-05		
